Data: the supplement of paper PMC10567573

B1: TBC1D10A (parent)
chain: WCLVQICEKYLPGYYSEKLEAIQL
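Also: lentivirally expressed fusions sorted by FACS into six bins by GFP to DsRed ratio, PSI derived from sequencing read proportions per bin multiplied by bin number.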

Variants of: B1
Assay: protein stability index of a GFP-peptide fusion (GPS, HEK-293T) (PSI 1-6); higher = more stable
Conditions: c terminus: a fixed tail appended
With WCLVQICEKYLPGYWSEKLEAIQL the protein stability index was 2.85.
WCLVQICEKYLPGYFSEKLEAIQL showed a protein stability index of 1.24.
In the case of WCLVQICEKYLPGYCSEKLEAIQL, the protein stability index is reported as 2.35.
In the case of WCLVQICEKYLPGYYSEKLIAIQL, the protein stability index is reported as 2.3.
Variant WCLVQICEKYLPGYYSEKLQAIQL has a protein stability index of 2.79.
Work on WCLVQICEKYLPGYYSEKLKAIQL yielded a protein stability index of 3.35.
For WCLVQICEKYLPGYYSEKLDAIQL, the protein stability index was 1.79.
With WCLVQICEKYLPGYYSEKLRAIQL the protein stability index was 1.8.
WCLVQICEKYLPGYYSEKLHAIQL showed a protein stability index of 3.07.
Variant WCLVQICEKYLPGYYSEKLTAIQL has a protein stability index of 1.47.
Work on WCLVQICEKYLPGYYSEKLAAIQL yielded a protein stability index of 2.21.
WCLVQICEKYLPGYYSEKLSAIQL gave a protein stability index of 2.64.
Variant WCLVQICEKYLPGYYSEKLWAIQL has a protein stability index of 1.74.
WCLVQICEKYLPGYYEEKLEAIQL gave a protein stability index of 4.03.
WCLVQICEKYLPGYYYEKLEAIQL gave a protein stability index of 2.7.
WCLVQICEKYLPGYYHEKLEAIQL showed a protein stability index of 1.6.
For WCLVQICEKYLPGYYDEKLEAIQL, the protein stability index was 2.24.
For WCLVQICEKYLPGYYPEKLEAIQL, the protein stability index was 2.1.
For WCLVQICEKYLPGYYWEKLEAIQL, the protein stability index was 3.94.
Work on WCLVQICEKYLPGYYSIKLEAIQL yielded a protein stability index of 2.74.
In the case of WCLVQICEKYLPGYYSMKLEAIQL, the protein stability index is reported as 3.65.
WCLVQICEKYLPGYYSQKLEAIQL gave a protein stability index of 1.94.
With WCLVQICEKYLPGYYSLKLEAIQL the protein stability index was 3.48.
For WCLVQICEKYLPGYYSVKLEAIQL, the protein stability index was 3.99.
Variant WCLVQICEKYLPGYYSHKLEAIQL has a protein stability index of 1.77.
WCLVQICEKYLPGYYSCKLEAIQL showed a protein stability index of 2.56.
Work on WCLVQICEKYLPGYYSKKLEAIQL yielded a protein stability index of 1.66.
WCLVQICEKYLPGYYSPKLEAIQL showed a protein stability index of 2.03.
Work on WCLVQICEKYLPGYYSEKEEAIQL yielded a protein stability index of 4.16.
In the case of WCLVQICEKYLPGYYSEKVEAIQL, the protein stability index is reported as 2.92.
Variant WCLVQICEKYLPGYYSEKQEAIQL has a protein stability index of 3.88.
With WCLVQICEKYLPGYYSEKCEAIQL the protein stability index was 4.85.
WCLVQICEKYLPGYYSEKNEAIQL showed a protein stability index of 3.63.
Variant WCLVQICEKYLPGYYSEKPEAIQL has a protein stability index of 1.99.
Variant WCLVQICEKYLPGYYSEKLEAIQH has a protein stability index of 1.14.
With WCLVQICEKYLPGYYSEKLEAIQV the protein stability index was 2.38.
WCLVQICEKYLPGYYSEKLEAIQD showed a protein stability index of 2.69.
WCLVQICEKYLPGYYSEKLEAIQA showed a protein stability index of 3.
With WCLVQICEKYLPGYYSEKLEAIQF the protein stability index was 3.24.
Work on WCLVQICEKYLPGYYSEKLEAIQK yielded a protein stability index of 3.14.
Variant WCLVQICEKYLPGYYSEKLEAIQW has a protein stability index of 2.98.
Variant WCLVQICEKYLPGYYSEKLEAIQT has a protein stability index of 2.55.
For WCLVQICEKYLPGYYSEKLECIQL, the protein stability index was 4.65.
In the case of WCLVQICEKYLPGYYSEKLETIQL, the protein stability index is reported as 2.15.
Variant WCLVQICEKYLPGYYSEKLEGIQL has a protein stability index of 2.02.
WCLVQICEKYLPGYYSEKLELIQL showed a protein stability index of 4.51.
In the case of WCLVQICEKYLPGYYSEKLEMIQL, the protein stability index is reported as 3.73.
WCLVQICEKYLPGYYSEKLEQIQL gave a protein stability index of 2.37.
In the case of WCLVQICEKYLPGYYSEKLEEIQL, the protein stability index is reported as 3.38.
WCLVQICEKYLPGYYSEKLEPIQL showed a protein stability index of 3.77.
For WCLVQICEKYLPGYYSEKLEHIQL, the protein stability index was 3.56.
In the case of WCLVQICEKYLPGYYSEKLERIQL, the protein stability index is reported as 2.99.
Variant WCLVQICEKYLPGYYSEKLEAISL has a protein stability index of 3.29.
WCLVQICEKYLPGYYSEKLEAIAL gave a protein stability index of 4.11.
Variant WCLVQICEKYLPGYYSEKLEAIWL has a protein stability index of 2.58.
For WCLVQICEKYLPGYYSEKLEAIHL, the protein stability index was 2.13.
WCLVQICEKYLPGYYSEKLEAIFL showed a protein stability index of 3.75.
Work on WCLVQICEKYLPGYYSEKLEAIIL yielded a protein stability index of 3.3.
WCLVQICEKYLPGYYSEKLEAIEL showed a protein stability index of 2.44.
Work on WCLVQICEKYLPGYYSEKLEAIPL yielded a protein stability index of 1.64.
For WCLVQICEKYLPGYYSEKLEAINL, the protein stability index was 3.14.
With WCLVQICEKYLPGYYSEKLEAIML the protein stability index was 2.93.
Variant WCLVQICEKYLPGYYSEKLEAIKL has a protein stability index of 2.75.
Variant WCLVQICEKYLPGYYSEKLEAIVL has a protein stability index of 2.11.
WCLVQICEKYLPGYYSEKLEAITL showed a protein stability index of 5.09.
WCLVQICEKYLPGYYSEKLEAIRL showed a protein stability index of 2.52.
WCLVQICEKYLPGYYSEKLEAGQL showed a protein stability index of 2.35.
For WCLVQICEKYLPGYYSEKLEADQL, the protein stability index was 3.23.
Work on WCLVQICEKYLPGYYSEKLEANQL yielded a protein stability index of 1.3.
WCLVQICEKYLPGYYSEKLEAKQL gave a protein stability index of 2.86.
Work on WCLVQICEKYLPGYYSEKLEAVQL yielded a protein stability index of 3.09.
Work on WCLVQICEKYLPGYYSEKLEAQQL yielded a protein stability index of 2.4.
With WCLVQICEKYLPGYYSEKLEASQL the protein stability index was 1.72.
WCLVQICEKYLPGYYSEKLEAEQL showed a protein stability index of 3.23.
WCLVQICEKYLPGYYSEKLEATQL showed a protein stability index of 2.67.
In the case of WCLVQICEKYLPGYYSEKLEAMQL, the protein stability index is reported as 2.21.
Work on WCLVQICEKYLPGYYSEKLEALQL yielded a protein stability index of 4.01.
In the case of WCLVQICEKYLPSYYSEKLEAIQL, the protein stability index is reported as 2.02.
WCLVQICEKYLPWYYSEKLEAIQL showed a protein stability index of 2.7.
Work on WCLVQICEKYLPKYYSEKLEAIQL yielded a protein stability index of 2.91.
With WCLVQICEKYLPMYYSEKLEAIQL the protein stability index was 3.53.
WCLVQICEKYLPYYYSEKLEAIQL showed a protein stability index of 5.24.
WCLVQICEKYLPIYYSEKLEAIQL showed a protein stability index of 1.54.
Variant WCLVQICEKYLPGYYSECLEAIQL has a protein stability index of 3.08.
With WCLVQICEKYLPGYYSEWLEAIQL the protein stability index was 3.09.
With WCLVQICEKYLPGYYSETLEAIQL the protein stability index was 2.
Variant WCLVQICEKYLPGYYSEMLEAIQL has a protein stability index of 2.98.
WCLVQICEKYLPGYYSEVLEAIQL showed a protein stability index of 3.17.
For WCLVQICEKYLPGYYSEQLEAIQL, the protein stability index was 1.91.
In the case of WCLVQICEKYLPGYYSEDLEAIQL, the protein stability index is reported as 1.92.
For WCLVQICEKYLPGYYSERLEAIQL, the protein stability index was 2.22.
Work on WCLVQICEKYLPGYYSEHLEAIQL yielded a protein stability index of 3.99.
Work on WCLVQICEKYLPGYYSELLEAIQL yielded a protein stability index of 1.83.
In the case of WCLVQICEKYLPGYYSEILEAIQL, the protein stability index is reported as 2.1.
